Columns and labels:
[1] = target: Cfl2 (Cif-like epoxide hydrolase 2) from Burkholderia cenocepacia strain HI2424 (Burkholderia cenocepacia strain HI2424); assay: crystal structure; hanging drop vapor diffusion; X-ray, 2.2 Å; molecular replacement with a Cif monomer
[2] = target: Cfl1 (Cif-like epoxide hydrolase 1) from Burkholderia cenocepacia strain J2315 / K56-2 (Burkholderia cenocepacia strain K56-2 (identical to strain J2315)); assay: as above

Substance | stoichiometry N [1] | stoichiometry N [2]
Cfl2 (Cif-like epoxide hydrolase 2) from Burkholderia cenocepacia strain HI2424 (enzyme) | 10 | 
Cfl1 (Cif-like epoxide hydrolase 1) from Burkholderia cenocepacia strain J2315 / K56-2 (enzyme) |  | 8

Source: publication PMC8244358
